Source: US20180155451A1 (published 2018)

T1: FcγRIIb extracellular domain with C-terminal His tag (human, UniProt P31994 43-217)
T1 construct: extracellular domain; expressed in FreeStyle293 cells; analyte in the Biacore assay; also called FcgRIIb; 2b; not shown: His tag at the C terminus
T1 sequence (looked up): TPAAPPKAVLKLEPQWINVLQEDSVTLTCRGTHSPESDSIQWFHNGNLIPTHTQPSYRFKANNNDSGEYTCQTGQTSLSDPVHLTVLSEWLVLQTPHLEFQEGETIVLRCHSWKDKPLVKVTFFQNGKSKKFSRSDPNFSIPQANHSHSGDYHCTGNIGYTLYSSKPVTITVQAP

B1: GpH7-A5/GpH7-B3 variant P238_15Y/GpL16-k0 (antibody, human IgG1, kappa)
heavy 1: not shown
heavy 2: not shown
light: DIVMTQSPLSLPVTPGEPASISCQASESLVHSNRNTYLHWYLQKPGQSPQLLIYKVSNRFSGVPDRFSGSGSGTDFTLKISRVEAEDVGVYYCSQNTHVPPTFGQGTKVEIERTVAAPSVFIFPPSDEQLKSGTASVVCLLNNFYPREAKVQWKVDNALQSGNSQESVTEQDSKDSTYSLSSTLTLSKADYEKHKVYACEVTHQGLSSPVTKSFNRGEC
notes: heterodimerized; mutation in the B3 H chain only; also called He Ab P238_15Y
B2: GpH7-B3 variant K326_08L/GpL16-k0 (antibody, human IgG1, kappa)
heavy: not shown
light: B1 light
notes: homodimerized IgG1, mutation in both H chains; also called Ho Ab
B3: GpH7-A5/GpH7-B3 variant P238_04F/GpL16-k0 (antibody, human IgG1, kappa)
heavy 1: not shown
heavy 2: not shown
light: B1 light
notes: heterodimerized; mutation in the B3 H chain only; also called He Ab P238_04F
B4: GpH7-B3 variant K326_09D/GpL16-k0 (antibody, human IgG1, kappa)
heavy: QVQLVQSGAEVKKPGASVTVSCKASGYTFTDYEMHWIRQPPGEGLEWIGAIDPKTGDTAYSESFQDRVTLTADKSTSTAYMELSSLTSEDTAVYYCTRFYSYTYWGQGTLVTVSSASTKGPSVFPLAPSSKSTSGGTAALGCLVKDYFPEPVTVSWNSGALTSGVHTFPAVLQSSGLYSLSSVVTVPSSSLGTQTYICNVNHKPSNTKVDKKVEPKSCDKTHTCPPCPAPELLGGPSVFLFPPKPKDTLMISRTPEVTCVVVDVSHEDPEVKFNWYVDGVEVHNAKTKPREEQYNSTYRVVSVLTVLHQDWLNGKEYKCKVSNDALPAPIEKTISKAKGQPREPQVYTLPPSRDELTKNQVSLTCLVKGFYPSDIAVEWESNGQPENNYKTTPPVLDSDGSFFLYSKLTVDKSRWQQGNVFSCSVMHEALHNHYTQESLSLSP
light: B1 light
notes: as for B2
B5: GpH7-B3 variant K326_04F/GpL16-k0 (antibody, human IgG1, kappa)
heavy: not shown
light: B1 light
notes: as for B2
B6: GpH7-B3 variant A330_08L/GpL16-k0 (antibody, human IgG1, kappa)
heavy: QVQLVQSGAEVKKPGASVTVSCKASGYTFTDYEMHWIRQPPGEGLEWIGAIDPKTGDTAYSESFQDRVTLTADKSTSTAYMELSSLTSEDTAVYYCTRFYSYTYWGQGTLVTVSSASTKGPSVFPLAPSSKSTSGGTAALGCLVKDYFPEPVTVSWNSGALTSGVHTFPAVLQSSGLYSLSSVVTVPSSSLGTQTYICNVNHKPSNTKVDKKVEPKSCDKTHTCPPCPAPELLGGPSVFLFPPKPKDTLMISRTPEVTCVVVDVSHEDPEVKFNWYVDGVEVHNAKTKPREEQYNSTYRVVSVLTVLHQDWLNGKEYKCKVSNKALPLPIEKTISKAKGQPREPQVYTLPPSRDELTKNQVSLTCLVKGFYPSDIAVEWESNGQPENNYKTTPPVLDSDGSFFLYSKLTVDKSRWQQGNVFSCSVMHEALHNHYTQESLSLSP
light: B1 light
notes: as for B2
B7: GpH7-A5/GpH7-B3 variant L235_20W/GpL16-k0 (antibody, human IgG1, kappa)
heavy 1: not shown
heavy 2: not shown
light: B1 light
notes: heterodimerized; mutation in the B3 H chain only; also called He Ab L235_20W
B8: GpH7-B3 variant K326_19Q/GpL16-k0 (antibody, human IgG1, kappa)
heavy: not shown
light: B1 light
notes: as for B2
B9: GpH7-A5/GpH7-B3 variant K334_14T/GpL16-k0 (antibody, human IgG1, kappa)
heavy 1: not shown
heavy 2: not shown
light: B1 light
notes: heterodimerized; mutation in the B3 H chain only; also called He Ab K334_14T
B10: GpH7-B3 variant I332_13S/GpL16-k0 (antibody, human IgG1, kappa)
heavy: not shown
light: B1 light
notes: as for B2
B11: GpH7-B3 variant I332_19Q/GpL16-k0 (antibody, human IgG1, kappa)
heavy: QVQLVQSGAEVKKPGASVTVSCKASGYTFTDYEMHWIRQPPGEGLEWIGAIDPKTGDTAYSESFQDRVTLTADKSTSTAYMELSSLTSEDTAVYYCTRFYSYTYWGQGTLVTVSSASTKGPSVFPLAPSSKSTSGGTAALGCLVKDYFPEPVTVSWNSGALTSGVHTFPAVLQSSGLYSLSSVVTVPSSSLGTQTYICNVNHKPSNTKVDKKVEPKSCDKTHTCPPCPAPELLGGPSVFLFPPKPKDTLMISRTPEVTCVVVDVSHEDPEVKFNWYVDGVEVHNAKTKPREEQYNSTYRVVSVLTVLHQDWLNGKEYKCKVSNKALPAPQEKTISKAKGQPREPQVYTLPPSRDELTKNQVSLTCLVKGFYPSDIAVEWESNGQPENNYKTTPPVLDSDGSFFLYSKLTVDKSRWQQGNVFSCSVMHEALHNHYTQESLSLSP
light: B1 light
notes: as for B2
B12: GpH7-B3 variant K326_07I/GpL16-k0 (antibody, human IgG1, kappa)
heavy: not shown
light: B1 light
notes: as for B2
B13: GpH7-A5/GpH7-B3 variant V266_06M/GpL16-k0 (antibody, human IgG1, kappa)
heavy 1: not shown
heavy 2: not shown
light: B1 light
notes: heterodimerized; mutation in the B3 H chain only; also called He Ab V266_06M
B14: GpH7-B3 variant I336_18N/GpL16-k0 (antibody, human IgG1, kappa)
heavy: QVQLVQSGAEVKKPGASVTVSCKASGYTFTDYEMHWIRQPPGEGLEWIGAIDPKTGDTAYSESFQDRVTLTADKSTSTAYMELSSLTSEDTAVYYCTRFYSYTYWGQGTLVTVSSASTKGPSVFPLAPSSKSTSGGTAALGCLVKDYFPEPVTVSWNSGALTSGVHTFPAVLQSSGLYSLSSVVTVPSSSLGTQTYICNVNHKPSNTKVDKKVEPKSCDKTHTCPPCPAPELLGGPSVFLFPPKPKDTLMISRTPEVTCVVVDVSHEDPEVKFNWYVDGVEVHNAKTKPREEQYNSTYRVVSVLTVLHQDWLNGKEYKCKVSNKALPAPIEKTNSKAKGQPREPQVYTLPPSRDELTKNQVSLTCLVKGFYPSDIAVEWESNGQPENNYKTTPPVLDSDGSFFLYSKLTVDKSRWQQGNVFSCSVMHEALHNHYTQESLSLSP
light: B1 light
notes: as for B2
B15: GpH7-B3 variant K326_06M/GpL16-k0 (antibody, human IgG1, kappa)
heavy: not shown
light: B1 light
notes: as for B2
B16: GpH7-B3 variant H268_10E/GpL16-k0 (antibody, human IgG1, kappa)
heavy: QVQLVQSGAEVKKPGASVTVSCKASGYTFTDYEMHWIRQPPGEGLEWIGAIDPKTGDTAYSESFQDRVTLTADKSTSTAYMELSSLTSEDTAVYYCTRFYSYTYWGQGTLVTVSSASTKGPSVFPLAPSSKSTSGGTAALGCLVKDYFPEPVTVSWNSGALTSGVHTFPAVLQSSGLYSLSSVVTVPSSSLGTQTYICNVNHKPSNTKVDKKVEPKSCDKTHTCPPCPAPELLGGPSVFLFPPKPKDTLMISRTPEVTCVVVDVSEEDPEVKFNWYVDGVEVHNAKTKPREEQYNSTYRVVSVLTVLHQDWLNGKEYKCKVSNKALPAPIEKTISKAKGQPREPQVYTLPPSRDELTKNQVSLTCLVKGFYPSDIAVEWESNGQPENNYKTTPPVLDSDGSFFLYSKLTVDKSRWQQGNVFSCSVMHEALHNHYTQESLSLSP
light: B1 light
notes: as for B2
B17: GpH7-A5/GpH7-B3 variant S324_06M/GpL16-k0 (antibody, human IgG1, kappa)
heavy 1: not shown
heavy 2: not shown
light: B1 light
notes: heterodimerized; mutation in the B3 H chain only; also called He Ab S324_06M
B18: GpH7-A5/GpH7-B3 variant T335_10E/GpL16-k0 (antibody, human IgG1, kappa)
heavy 1: not shown
heavy 2: not shown
light: B1 light
notes: heterodimerized; mutation in the B3 H chain only; also called He Ab T335_10E
B19: GpH7-B3 variant I332_09D/GpL16-k0 (antibody, human IgG1, kappa)
heavy: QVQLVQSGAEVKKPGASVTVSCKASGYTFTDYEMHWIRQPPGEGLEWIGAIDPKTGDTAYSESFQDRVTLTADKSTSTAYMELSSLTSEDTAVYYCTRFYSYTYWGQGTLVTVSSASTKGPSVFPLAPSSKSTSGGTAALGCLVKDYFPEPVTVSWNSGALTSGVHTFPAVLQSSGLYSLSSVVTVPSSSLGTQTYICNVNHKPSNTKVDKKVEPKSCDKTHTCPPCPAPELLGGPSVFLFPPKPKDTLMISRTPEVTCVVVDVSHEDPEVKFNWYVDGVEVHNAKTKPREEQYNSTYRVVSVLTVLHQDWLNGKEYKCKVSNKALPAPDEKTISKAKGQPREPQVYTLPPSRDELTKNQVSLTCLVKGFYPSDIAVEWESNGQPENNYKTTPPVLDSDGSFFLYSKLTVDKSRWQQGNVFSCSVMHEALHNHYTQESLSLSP
light: B1 light
notes: as for B2
B20: GpH7-B3 variant K326_03V/GpL16-k0 (antibody, human IgG1, kappa)
heavy: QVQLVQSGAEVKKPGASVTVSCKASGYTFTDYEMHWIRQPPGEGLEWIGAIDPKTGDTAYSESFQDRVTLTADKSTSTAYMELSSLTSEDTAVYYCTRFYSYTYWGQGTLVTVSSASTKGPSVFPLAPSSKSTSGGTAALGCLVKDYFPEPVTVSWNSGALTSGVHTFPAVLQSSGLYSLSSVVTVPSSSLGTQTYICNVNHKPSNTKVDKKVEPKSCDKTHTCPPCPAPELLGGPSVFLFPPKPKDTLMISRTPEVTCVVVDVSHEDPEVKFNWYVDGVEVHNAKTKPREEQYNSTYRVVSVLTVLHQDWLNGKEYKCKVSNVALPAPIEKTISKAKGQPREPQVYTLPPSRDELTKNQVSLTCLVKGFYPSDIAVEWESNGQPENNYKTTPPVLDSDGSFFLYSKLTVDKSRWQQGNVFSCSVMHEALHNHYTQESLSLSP
light: B1 light
notes: as for B2
B21: GpH7-B3 variant K326_15Y/GpL16-k0 (antibody, human IgG1, kappa)
heavy: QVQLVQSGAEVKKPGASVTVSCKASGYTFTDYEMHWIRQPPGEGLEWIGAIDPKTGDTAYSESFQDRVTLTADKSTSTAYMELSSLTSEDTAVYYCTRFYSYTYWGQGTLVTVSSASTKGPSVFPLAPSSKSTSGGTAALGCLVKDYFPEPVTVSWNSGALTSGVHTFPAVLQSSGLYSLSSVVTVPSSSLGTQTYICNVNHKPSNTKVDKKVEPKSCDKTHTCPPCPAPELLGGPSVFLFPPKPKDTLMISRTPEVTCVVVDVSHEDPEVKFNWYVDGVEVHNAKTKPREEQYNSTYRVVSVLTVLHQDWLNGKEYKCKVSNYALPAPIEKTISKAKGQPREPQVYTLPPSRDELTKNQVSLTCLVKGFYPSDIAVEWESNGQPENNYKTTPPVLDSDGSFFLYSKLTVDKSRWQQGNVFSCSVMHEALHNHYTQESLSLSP
light: B1 light
notes: as for B2
B22: GpH7-A5/GpH7-B3 variant L328_13S/GpL16-k0 (antibody, human IgG1, kappa)
heavy 1: not shown
heavy 2: not shown
light: B1 light
notes: heterodimerized; mutation in the B3 H chain only; also called He Ab L328_13S
B23: GpH7-B3 variant H268_09D/GpL16-k0 (antibody, human IgG1, kappa)
heavy: not shown
light: B1 light
notes: as for B2
B24: GpH7-B3 variant I332_10E/GpL16-k0 (antibody, human IgG1, kappa)
heavy: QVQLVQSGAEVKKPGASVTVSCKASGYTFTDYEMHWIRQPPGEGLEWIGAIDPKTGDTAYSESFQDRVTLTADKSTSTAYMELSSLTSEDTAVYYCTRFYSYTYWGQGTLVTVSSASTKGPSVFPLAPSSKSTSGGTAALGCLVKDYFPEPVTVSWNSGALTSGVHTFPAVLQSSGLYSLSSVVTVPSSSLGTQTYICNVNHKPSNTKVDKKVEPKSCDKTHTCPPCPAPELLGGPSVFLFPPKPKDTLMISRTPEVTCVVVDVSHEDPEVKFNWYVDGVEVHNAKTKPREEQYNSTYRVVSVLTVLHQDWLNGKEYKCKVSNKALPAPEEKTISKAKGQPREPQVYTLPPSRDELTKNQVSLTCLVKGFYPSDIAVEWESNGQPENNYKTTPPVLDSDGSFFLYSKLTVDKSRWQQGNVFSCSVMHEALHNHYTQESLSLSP
light: B1 light
notes: as for B2
B25: GpH7-A5/GpH7-B3 variant S267_06M/GpL16-k0 (antibody, human IgG1, kappa)
heavy 1: not shown
heavy 2: not shown
light: B1 light
notes: heterodimerized; mutation in the B3 H chain only; also called He Ab S267_06M
B26: GpH7-A5/GpH7-B3 variant P331_16H/GpL16-k0 (antibody, human IgG1, kappa)
heavy 1: not shown
heavy 2: not shown
light: B1 light
notes: heterodimerized; mutation in the B3 H chain only; also called He Ab P331_16H
B27: GpH7-B3 variant I332_15Y/GpL16-k0 (antibody, human IgG1, kappa)
heavy: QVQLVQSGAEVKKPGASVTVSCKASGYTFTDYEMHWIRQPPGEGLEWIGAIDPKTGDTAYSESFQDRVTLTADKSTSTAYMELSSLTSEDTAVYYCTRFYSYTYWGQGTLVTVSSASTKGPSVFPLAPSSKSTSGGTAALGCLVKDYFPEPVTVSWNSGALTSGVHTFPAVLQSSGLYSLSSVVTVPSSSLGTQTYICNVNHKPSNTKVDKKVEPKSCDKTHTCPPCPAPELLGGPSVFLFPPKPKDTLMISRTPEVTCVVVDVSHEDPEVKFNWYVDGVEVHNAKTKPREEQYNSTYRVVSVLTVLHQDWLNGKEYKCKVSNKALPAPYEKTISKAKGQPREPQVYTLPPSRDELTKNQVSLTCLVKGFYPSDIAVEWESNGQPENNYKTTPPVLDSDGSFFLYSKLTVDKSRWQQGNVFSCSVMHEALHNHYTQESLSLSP
light: B1 light
notes: as for B2
B28: GpH7-A5/GpH7-B3 variant S239_03V/GpL16-k0 (antibody, human IgG1, kappa)
heavy 1: not shown
heavy 2: not shown
light: B1 light
notes: heterodimerized; mutation in the B3 H chain only; also called He Ab S239_03V
B29: GpH7-B3 variant I336_03V/GpL16-k0 (antibody, human IgG1, kappa)
heavy: not shown
light: B1 light
notes: as for B2

Tests used:
[1] = biological target: T1, FcγRIIb extracellular domain with …; assay: SPR (Biacore), captured antibody, FcγRIIb analyte; binding relative to GpH7-A5/GpH7-B3/GpL16-k0 = 100
[2] = biological target: T2, FcγRIIIa extracellular domain with C-terminal His tag (human, UniProt P08637 17-208); assay: SPR, relative to GpH7-B3/GpL16-k0
T2 construct: extracellular domain; also called FcgRIIIa; 3a
T2 sequence (P08637 17-208): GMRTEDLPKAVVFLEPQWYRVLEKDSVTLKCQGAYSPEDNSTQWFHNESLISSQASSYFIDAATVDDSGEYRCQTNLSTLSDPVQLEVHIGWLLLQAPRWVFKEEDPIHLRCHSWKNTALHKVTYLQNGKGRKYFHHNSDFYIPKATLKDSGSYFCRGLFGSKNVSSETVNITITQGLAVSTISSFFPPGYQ

| Binder | He/Con_2b [1] | Ho/Con_3a [2] |
| --- | --- | --- |
| B1 | 218 % of control | – |
| B2 | – | 114 % of control (=100) |
| B3 | 312 % of control | – |
| B4 | – | 163 % of control (=100) |
| B5 | – | 103 % of control (=100) |
| B6 | – | 138 % of control (=100) |
| B7 | 147 % of control | – |
| B8 | – | 118 % of control (=100) |
| B9 | 115 % of control | – |
| B10 | – | 112 % of control (=100) |
| B11 | – | 118 % of control (=100) |
| B12 | – | 134 % of control (=100) |
| B13 | 251 % of control | – |
| B14 | – | 101 % of control (=100) |
| B15 | – | 129 % of control (=100) |
| B16 | – | 2060 % of control (=100) |
| B17 | 112 % of control | – |
| B18 | 108 % of control | – |
| B19 | – | 255 % of control (=100) |
| B20 | – | 137 % of control (=100) |
| B21 | – | 115 % of control (=100) |
| B22 | 149 % of control | – |
| B23 | – | 220 % of control (=100) |
| B24 | – | 278 % of control (=100) |
| B25 | 210 % of control | – |
| B26 | 116 % of control | – |
| B27 | – | 106 % of control (=100) |
| B28 | 108 % of control | – |
| B29 | – | 110 % of control (=100) |
